Data published in patent US20230265151A1, “GIP/GLP1 CO-AGONIST COMPOUNDS” (priority 2020, published 2023).
*1 amine or outer side, *2 acyl side, *3 side chain or, on linkers, in order; H or OH if unused. Where no end group is shown, it is not given here. Side-chain parts run from the residue outwards. [ ]: non-standard residue; d: D form. The star is where a group is joined. Decanoyl(10-(4-HOOC-PhO)) = O=C(O)c1ccc(OCCCCCCCCCC(=O)*)cc1; αMePhe(2-F) = C[C@](N)(Cc1ccccc1F)C(=O)O; γGlu = O=C(O)[C@H](CCC(=O)[*:2])N[*:1]; C14 diacid = O=C(O)CCCCCCCCCCCCC(=O)*; αMeY = C[C@](N)(Cc1ccc(O)cc1)C(=O)O; αMeL = CC(C)C[C@](C)(N)C(=O)O; Orn = NCCC[C@H](N)C(=O)O; AEEA = NCCOCCOCC(=O)O; Aib = CC(C)(N)C(=O)O

B1: Y-Aib-EGT-αMeF(2F)-TSD-4Pal-Aib-I-αMeL-LD-Orn-K((2-[2-(2-Amino-ethoxy)-ethoxy]-acetyl)-(y-Glu)-(10-(4-carboxyphenoxy)decanoyl))AQ-Aib-EFI-(D-Glu)-αMeY-LIEGGPSSG … (peptide)
peptide: YXEGTXTSDXXIXLDXKAQXEFIXXLIEGGPSSGAPPPSK
modifications: Aib2, αMeF(2F)6, 4Pal10, Aib11, αMeL13, Orn16, K17(Z1), Aib20, D-Glu24, αMeY25, K40(Z1), C-term NH2; Z1=AEEA-(γ-Glu)-(10-(4-carboxyphenoxy)decanoyl)
B2: Y-Aib-EGT-αMeF(2F)-TSD-4Pal-Aib-I-αMeL-LD-Orn-K((2-[2-(2-Amino-ethoxy)-ethoxy]-acetyl)3-(γ-Glu)-CO-(CH2)10-CH3)AQ-Aib-EFI-(D-Glu)-αMeY-LIEGGPSSGAPPPSK((2-[2-(2- … (peptide)
peptide: YXEGTXTSDXXIXLDXKAQXEFIXXLIEGGPSSGAPPPSK
modifications: Aib2, αMeF(2F)6, 4Pal10, Aib11, αMeL13, Orn16, K17(Z1), Aib20, D-Glu24, αMeY25, K40(Z1), C-term NH2; Z1=AEEA3-(γ-Glu)-CO-(CH2)10-CH3
B3: Y-Aib-EGT-αMeF(2F)-TSD-4Pal-Aib-I-αMeL-LD-Orn-K((2-[2-(2-Amino-ethoxy)-ethoxy]-acetyl)3-(γ … (peptide)
peptide: YXEGTXTSDXXIXLDXKAQXXFIXXLIEGGPSSGAPPPSK
modifications: Aib2, αMeF(2F)6, 4Pal10, Aib11, αMeL13, Orn16, K17(Z1), Aib20, Orn21, D-Glu24, αMeY25, K40(Z1), C-term NH2; Z1=AEEA3-(γ-Glu)-CO-(CH2)10-CH3
B4: Y-Aib-EGT-αMeF(2F)-TSD-4Pal-Aib-I-αMeL-LD-Orn-K((2-[2-(2-Amino-ethoxy)-ethoxy]-acetyl)2-(γ-Glu)-CO-(CH2)10-CH3)AQ-Aib-Orn-FI-(D-Glu)-αMeY-LIEGGPSSGAPPPSK((2-[2- … (peptide)
peptide: YXEGTXTSDXXIXLDXKAQXXFIXXLIEGGPSSGAPPPSK
modifications: Aib2, αMeF(2F)6, 4Pal10, Aib11, αMeL13, Orn16, K17(Z1), Aib20, Orn21, D-Glu24, αMeY25, K40(Z1), C-term NH2; Z1=AEEA2-(γ-Glu)-CO-(CH2)10-CH3
B5: Y-Aib-EGT-αMeF(2F)-TSD-4Pal-SI-αMeL-LD-Orn-K((2-[2-(2-Amino-ethoxy)-ethoxy]-acetyl)2-(γ-Glu)-CO-(CH2)14-CH3)AQ-Aib-EFI-(D-Glu)-αMeY-LIEGGK((2-[2-(2-Amino-ethoxy … (peptide)
peptide: YXEGTXTSDXSIXLDXKAQXEFIXXLIEGGKSSGAPPPS
modifications: Aib2, αMeF(2F)6, 4Pal10, αMeL13, Orn16, K17(Z1), Aib20, D-Glu24, αMeY25, K31(Z1), C-term NH2; Z1=AEEA2-(γ-Glu)-CO-(CH2)14-CH3
B6: Y-Aib-EGT-αMeF(2F)-TSDK((2-[2-(2-Amino-ethoxy)-ethoxy]-acetyl)3-(γ-Glu)-CO-(CH2)10-CH3)-Aib-I-αMeL-LD-Orn-K((2-[2-(2-Amino-ethoxy)-ethoxy]-acetyl)3-(γ-Glu)-CO-( … (peptide)
peptide: YXEGTXTSDKXIXLDXKAQXEXIXXLIEGGPSSGAPPPS
modifications: Aib2, αMeF(2F)6, K10(Z1), Aib11, αMeL13, Orn16, K17(Z1), Aib20, αMeF22, D-Glu24, αMeY25, C-term NH2; Z1=AEEA3-(γ-Glu)-CO-(CH2)10-CH3
B7: Y-Aib-EGT-αMeF(2F)-TSD-4Pal-SI-αMeL-LD-Orn-K((2-[2-(2-Amino-ethoxy)-ethoxy]-acetyl)2-(γ-Glu)-CO-(CH2)12-CH3)AQ-Aib-EFI-(D-Glu)-αMeY-LIEGGK((2-[2-(2-Amino-ethoxy … (peptide)
peptide: YXEGTXTSDXSIXLDXKAQXEFIXXLIEGGKSSGAPPPS
modifications: Aib2, αMeF(2F)6, 4Pal10, αMeL13, Orn16, K17(Z1), Aib20, D-Glu24, αMeY25, K31(Z1), C-term NH2; Z1=AEEA2-(γ-Glu)-CO-(CH2)12-CH3
B8: Y-Aib-EGT-αMeF(2F)-TSDV-Aib-I-αMeL-LD-Orn … (peptide)
peptide: Y[Aib]EGT[αMePhe(2-F)]TSDV[Aib]I[αMeL]LD[Orn]QAQ[Aib][Orn]FIK([AEEA-AEEA-γGlu-C14 diacid])[αMeY]LIK([AEEA-AEEA-γGlu-C14 diacid])GGPSSGAPPPS-NH2
modifications: N-terminus assumed
SMILES: CC[C@H](C)[C@H](NC(=O)[C@H](CC(C)C)NC(=O)[C@](C)(Cc1ccc(O)cc1)NC(=O)[C@H](CCCCNC(=O)COCCOCCNC(=O)COCCOCCNC(=O)CC[C@H](NC(=O)CCCCCCCCCCCCC(=O)O)C(=O)O)NC(=O)[C@@H](NC(=O)[C@H](Cc1ccccc1)NC(=O)[C@H](CCCN)NC(=O)C(C)(C)NC(=O)[C@H](CCC(N)=O)NC(=O)[C@H](C)NC(=O)[C@H](CCC(N)=O)NC(=O)[C@H](CCCN)NC(=O)[C@H](CC(=O)O)NC(=O)[C@H](CC(C)C)NC(=O)[C@](C)(CC(C)C)NC(=O)[C@@H](NC(=O)C(C)(C)NC(=O)[C@@H](NC(=O)[C@H](CC(=O)O)NC(=O)[C@H](CO)NC(=O)[C@@H](NC(=O)[C@](C)(Cc1ccccc1F)NC(=O)[C@@H](NC(=O)CNC(=O)[C@H](CCC(=O)O)NC(=O)C(C)(C)NC(=O)[C@@H](N)Cc1ccc(O)cc1)[C@@H](C)O)[C@@H](C)O)C(C)C)[C@@H](C)CC)[C@@H](C)CC)C(=O)N[C@@H](CCCCNC(=O)COCCOCCNC(=O)COCCOCCNC(=O)CC[C@H](NC(=O)CCCCCCCCCCCCC(=O)O)C(=O)O)C(=O)NCC(=O)NCC(=O)N1CCC[C@H]1C(=O)N[C@@H](CO)C(=O)N[C@@H](CO)C(=O)NCC(=O)N[C@@H](C)C(=O)N1CCC[C@H]1C(=O)N1CCC[C@H]1C(=O)N1CCC[C@H]1C(=O)N[C@@H](CO)C(N)=O
B9: Y-Aib-EGT-αMeF(2F)-TSDY-Aib-I-αMeL-LD-Orn-IAQ-Aib-Orn-FIK((2-[2-(2-Amino-ethoxy)-ethoxy]-acetyl)3-(γ-Glu)--(10-(4-carboxyphenoxy)decanoyl))-αMeY-LIK((2-[2-(2-Am … (peptide)
peptide: YXEGTXTSDYXIXLDXIAQXXFIKXLIKGGPSSGAPPPS
modifications: Aib2, αMeF(2F)6, Aib11, αMeL13, Orn16, Aib20, Orn21, K24(Z1), αMeY25, K28(Z1), C-term NH2; Z1=AEEA3-(γ-Glu)-(10-(4-carboxyphenoxy)decanoyl)
B10: Y-Aib-EGT-αMeF(2F)-TSDY-Aib-I-αMeL-LD-Orn-IAQ-Aib-Orn-FIK((2-[2-(2-Amino-ethoxy)-ethoxy]-acetyl)3-(γ-Glu)-CO-(CH2)12-CO2H)-αMeY-LIK((2-[2-(2-Amino-ethoxy)-ethox … (peptide)
peptide: YXEGTXTSDYXIXLDXIAQXXFIKXLIKGGPSSGAPPPS
modifications: Aib2, αMeF(2F)6, Aib11, αMeL13, Orn16, Aib20, Orn21, K24(Z1), αMeY25, K28(Z1), C-term NH2; Z1=AEEA3-(γ-Glu)-CO-(CH2)12-CO2H
B11: Y-Aib-EGT-αMeF(2F)-TSD-4Pal-Aib-I-αMeL-LD-Orn-QAQ-Aib-Orn-FIK((2-[2-(2-Amino-ethoxy)-ethoxy]-acetyl)2-(γ-Glu)-CO-(CH2)12-CO2H)-αMeY-LIK((2-[2-(2-Amino-ethoxy)-e … (peptide)
peptide: YXEGTXTSDXXIXLDXQAQXXFIKXLIKGGPSSGAPPPS
modifications: Aib2, αMeF(2F)6, 4Pal10, Aib11, αMeL13, Orn16, Aib20, Orn21, K24(Z1), αMeY25, K28(Z1), C-term NH2; Z1=AEEA2-(γ-Glu)-CO-(CH2)12-CO2H
B12: Y-Aib-EGT-αMeF(2F)-TSD-4Pal-Aib-I-αMeL-LD-Orn-K((2-[2-(2-Amino-ethoxy)-ethoxy]-acetyl)3-(γ-Glu)-CO-(CH2)10-CH3)AQ-Aib-K((2-[2-(2-Amino-ethoxy)-ethoxy]-acetyl)3- … (peptide)
peptide: YXEGTXTSDXXIXLDXKAQXKFIXXLIXGGPSSGAPPPS
modifications: Aib2, αMeF(2F)6, 4Pal10, Aib11, αMeL13, Orn16, K17(Z1), Aib20, K21(Z1), D-Glu24, αMeY25, Orn28, C-term NH2; Z1=AEEA3-(γ-Glu)-CO-(CH2)10-CH3
B13: Y-Aib-EGT-αMeF(2F)-TSD-4Pal-Aib-I-αMeL-LD-Orn-QAQ-Aib-Orn-FIK(PEG4-(γ-Glu)-CO-(CH2)12-CO2H)-αMeY-LIK(PEG4-(γ-Glu)-CO-(CH2)12-CO2H)GGPSSGAPPPS-NH2 (peptide)
peptide: YXEGTXTSDXXIXLDXQAQXXFIKXLIKGGPSSGAPPPS
modifications: Aib2, αMeF(2F)6, 4Pal10, Aib11, αMeL13, Orn16, Aib20, Orn21, K24(Z1), αMeY25, K28(Z1), C-term NH2; Z1=PEG4-(γ-Glu)-CO-(CH2)12-CO2H

What was measured:
[1] = target: T1, human glucagon receptor (human, UniProt P47871 26-477); test: SPA competition vs [125I]-Gcg, hGcgR membranes
T1 construct: whole, on cells; also called hGCGR; hGcgR
T1 sequence (P47871 26-477): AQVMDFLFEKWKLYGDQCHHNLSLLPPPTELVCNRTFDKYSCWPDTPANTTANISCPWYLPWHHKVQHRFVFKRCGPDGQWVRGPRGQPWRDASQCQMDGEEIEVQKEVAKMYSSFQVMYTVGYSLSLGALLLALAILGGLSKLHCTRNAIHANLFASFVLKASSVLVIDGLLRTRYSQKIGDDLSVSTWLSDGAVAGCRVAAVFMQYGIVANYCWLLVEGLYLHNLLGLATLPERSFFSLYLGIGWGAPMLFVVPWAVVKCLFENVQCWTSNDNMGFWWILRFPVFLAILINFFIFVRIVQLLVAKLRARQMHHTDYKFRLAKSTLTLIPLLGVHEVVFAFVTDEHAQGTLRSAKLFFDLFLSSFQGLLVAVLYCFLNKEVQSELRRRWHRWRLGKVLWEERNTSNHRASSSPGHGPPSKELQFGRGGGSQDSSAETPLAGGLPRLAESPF
Experimental: The binding buffer contains 25 mM 4-(2-hydroxyethyl)-1-piperazineethanesulfonic acid (HEPES), pH 7.4, 2.5 mM CaCl₂, 1 mM MgCh, 0.1% (w/v) bacitracin (Research Products), 0.003% (w/v) Polyoxyethylenesorbitan monolaurate (TWEEN®-20), and Roche Complete™ Protease Inhibitors without EDTA. […] Plates are sealed and mixed on a plate shaker (setting 6) for 1 minute and read with a PerkinElmer Trilux MicroBeta® scintillation counter after 12 hours of incubation/settling time at room temperature.
Data are analyzed using four-parameter (curve maximum, curve minimum, IC₅₀, Hill slope) nonlinear regression routines (Genedata Screener, version 12.0.4, Genedata AG, Basal, Switzerland). […] Values for Kᵢ are reported as the geometric mean, with error expressed as the standard error of the mean (SEM) and n is equal to the number of independent replicates (determined in assays performed on different days).

[2] = target: T2, human GLP-1 receptor (human, UniProt P43220 24-463); test: SPA competition vs [125I]-GLP-1, hGLP-1R membranes
T2 construct: whole, on cells; also called hGLP-1R; human glucagon-like peptide-1 receptor
Procedure, shortened: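 Competition binding in 25 mM HEPES pH 7.4, 2.5 mM CaCl₂, 1 mM MgCl₂, 0.1% bacitracin, 0.003% TWEEN-20, EDTA-free protease inhibitors. IC₅₀ from four-parameter nonlinear fit; Kᵢ given as geometric mean ± SEM, n = independent replicates on different days.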

[3] = target: T3, human GIP receptor (human, UniProt P48546 22-466); test: SPA competition vs [125I]-GIP, hGIPR membranes
T3 construct: whole, on cells; also called hGIPR; human glucose-dependent insulinotropic polypeptide receptor
T3 sequence (looked up): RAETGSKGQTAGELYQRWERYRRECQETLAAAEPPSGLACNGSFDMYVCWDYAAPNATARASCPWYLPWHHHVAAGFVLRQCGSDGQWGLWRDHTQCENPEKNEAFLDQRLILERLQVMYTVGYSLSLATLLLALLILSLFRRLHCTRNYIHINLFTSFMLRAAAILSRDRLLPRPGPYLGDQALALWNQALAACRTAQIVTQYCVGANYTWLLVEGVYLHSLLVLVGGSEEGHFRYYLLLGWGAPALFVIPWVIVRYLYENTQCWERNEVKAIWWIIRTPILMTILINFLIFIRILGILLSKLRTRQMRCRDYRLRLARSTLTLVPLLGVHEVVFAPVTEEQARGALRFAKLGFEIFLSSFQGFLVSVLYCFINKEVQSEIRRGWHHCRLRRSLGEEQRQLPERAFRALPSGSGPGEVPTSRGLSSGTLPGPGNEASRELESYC

Binder | Ki [1] [nM] | Ki [2] [nM] | Ki [3] [nM]
B1 | 360 | 0.765 | 0.053
B2 | 16 | 0.219 | 0.0206
B3 | 14.4 | 0.122 | 0.0091
B4 | 3.59 | 0.0684 | 0.0174
B5 | 1.46 | 0.362 | 0.0501
B6 | 64.9 | 0.412 | 0.0372
B7 | 4.29 | 0.139 | 0.024
B8 | 116 | 0.367 | 0.0314
B9 | 20.1 | 0.326 | 0.0266
B10 | 49.7 | 0.407 | 0.0406
Y[Aib]EGT[αMePhe(2-F)]TSDV[Aib]I[αMeL]LD[Orn]QAQ[Aib]EFIK([AEEA-AEEA-γGlu-Decanoyl(10-(4-HOOC-PhO))])[αMeY]LIK([AEEA-AEEA-γGlu-Decanoyl(10-(4-HOOC-PhO))])GGPSSGAPPPS-NH2 | 109 | 0.382 | 0.0369
B11 | 289 | 0.346 | 0.0279
B12 | 28.3 | 0.187 | 0.0175
B13 | 351 | 0.252 | 0.0419
